Results from paper PMC8335659.

Biological target: GST-STG^9D
Experiment: pull-down; purified GST fusion of the STG C terminus incubated 1 h at 4 °C with lysate of HEK293T cells expressing FLAG-tagged μ2 or μ3, with or without 500 μM MPR^AA or MPR^DD peptide; glutathione Sepharose; blots with anti-FLAG and anti-GST

percent of μ3 pulled down (GST-STG^9A = 100%): 21%
B1: FLAG-tagged μ3 (natural protein)
chain: MIHSLFLINCSGDIFLEKHWKSVVSQSVCDYFFEAQEKAADVENVPPVISTPHHYLISIYRDKLFFVSVIQTEVPPLFVIEFLHRVADTFQDYFGECSEAAIKDNVVIVYELLEEMLDNGFPLATESNILKELIKPPTILRSVVNSITGSSNVGDTLPTGQLSNIPWRRAGVKYTNNEAYFDVVEEIDAIIDKSGSTVFAEIQGVIDACIKLSGMPDLSLSFMNPRLLDDVSFHPCIRFKRWESERVLSFIPPDGNFRLISYRVSSQNLVAIPVYVKHSISFKENSSCGRFDITIGPKQNMGKTIEGITVTVHMPKVVLNMNLTPTQGSYTFDPVTKVLAWDVGKITPQKLPSLKGLVNLQSGAPKPEENPNLNIQFKIQQLAISGLKVNRLDMYGEKYKPFKGVKYVTKAGKFQVRT
